These results are taken from patent US20260193377A1 (FULL LIFE TECHNOLOGIES HK, published 2026).

The target in test [1] is T1, GCC expressed on T84 cells (UniProt P25092 24-1073, limits assumed).
T1 construct: whole, on cells; also called guanylyl cyclase C; GUCY2C
The test is described as follows: flow cytometry on T84 cells expressing GCC, 300 nm [sic], PE-anti human Fc secondary; Blank 30.7. The protocol: T84 cells expressing GCC were used to evaluate the binding affinity of the anti-GCC sdAbs. Briefly, 50 μL T84 cells at density of 3×10⁶ cells/mL were incubated with 50 μL anti-GCC sdAbs at 4° C. for 2 hours. After incubation, the cells were washed three times with 400 μL FACS buffer, resuspended with PE-anti human Fc 2nd antibody (eBioscience 12-4998-82, 1:1000 dilution) and incubated at 4° C. for 60 min. Then the cells were collected and subject to FACS analysis.
Background: A flow cytometer gives signals particle by particle.

For test [2], the target named is T2, Human GUCY2C (captured on anti-human Fc capturing antibody, SPR) (human).
T2 construct: also called human GCC; guanylyl cyclase C
Description: SPR (Biacore T200), human GUCY2C captured via anti-human Fc, sdAb as analyte, 1:1 fit. The protocol: Anti-GCC sdAbs were diluted with 1×HBS-EP buffer. Human GUCY2C was captured on anti-human Fc capturing Ab-immobilized sCM5 chip. Then anti-GCC sdAb samples were injected with a flow rate of 10 μl/min for 180 sec, followed by dissociation for 800 sec. The binding curves were locally fitted with Biacore® T200 analysis software (BIAevaluation) using a 1:1 Langmuir binding model.
(Surface plasmon resonance follows binding to a sensor surface in real time, without labels.)

T2 sequence (P25092 24-430): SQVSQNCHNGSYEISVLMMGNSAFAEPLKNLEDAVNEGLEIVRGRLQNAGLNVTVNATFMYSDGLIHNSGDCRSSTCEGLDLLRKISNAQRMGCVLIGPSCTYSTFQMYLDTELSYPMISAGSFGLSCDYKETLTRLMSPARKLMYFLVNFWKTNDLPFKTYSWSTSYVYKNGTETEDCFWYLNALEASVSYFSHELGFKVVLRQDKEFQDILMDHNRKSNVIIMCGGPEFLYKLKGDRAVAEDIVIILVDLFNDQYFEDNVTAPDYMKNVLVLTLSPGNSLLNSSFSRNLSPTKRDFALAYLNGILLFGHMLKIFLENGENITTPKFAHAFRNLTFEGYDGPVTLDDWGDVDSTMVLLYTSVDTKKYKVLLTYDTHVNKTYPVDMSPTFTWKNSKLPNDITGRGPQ
T1 sequence (P25092 24-1073 limits assumed): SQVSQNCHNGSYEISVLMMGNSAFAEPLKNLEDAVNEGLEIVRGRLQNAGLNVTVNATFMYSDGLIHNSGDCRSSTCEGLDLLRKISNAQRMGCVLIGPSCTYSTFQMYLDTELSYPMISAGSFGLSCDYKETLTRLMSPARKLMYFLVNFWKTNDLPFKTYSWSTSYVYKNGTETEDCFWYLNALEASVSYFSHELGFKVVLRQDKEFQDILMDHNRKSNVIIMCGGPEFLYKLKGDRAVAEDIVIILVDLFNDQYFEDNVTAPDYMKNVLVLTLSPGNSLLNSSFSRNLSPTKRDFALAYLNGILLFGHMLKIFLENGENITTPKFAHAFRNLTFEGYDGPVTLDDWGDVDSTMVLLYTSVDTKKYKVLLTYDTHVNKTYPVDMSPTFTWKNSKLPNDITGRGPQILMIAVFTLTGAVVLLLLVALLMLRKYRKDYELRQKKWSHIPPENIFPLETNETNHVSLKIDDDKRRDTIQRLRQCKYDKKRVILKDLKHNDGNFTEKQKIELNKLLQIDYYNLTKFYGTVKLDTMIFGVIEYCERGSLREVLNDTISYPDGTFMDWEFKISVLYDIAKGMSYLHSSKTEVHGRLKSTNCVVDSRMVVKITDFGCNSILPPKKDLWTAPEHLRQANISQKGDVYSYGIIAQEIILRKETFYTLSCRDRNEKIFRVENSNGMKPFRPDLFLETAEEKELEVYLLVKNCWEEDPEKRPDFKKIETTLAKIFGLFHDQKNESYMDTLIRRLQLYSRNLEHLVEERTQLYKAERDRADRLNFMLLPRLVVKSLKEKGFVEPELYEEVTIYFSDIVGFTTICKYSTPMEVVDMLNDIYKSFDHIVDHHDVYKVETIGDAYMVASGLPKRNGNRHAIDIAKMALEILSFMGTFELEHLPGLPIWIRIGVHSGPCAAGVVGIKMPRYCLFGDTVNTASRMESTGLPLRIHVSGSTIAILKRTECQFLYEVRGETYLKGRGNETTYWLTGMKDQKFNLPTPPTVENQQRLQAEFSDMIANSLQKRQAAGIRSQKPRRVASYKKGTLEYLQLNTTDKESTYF

B1: anti-GCC single domain antibody SEQ ID NO. 8 (VHH)
VHH: EVDLVESGGGLVQPGGSLRLSCGASGFTFSHYAMSWVRQAPGKALEWVSDISSGGGITKYADSVKGRFTISRDDAQNTLYLQMNSLKPEDTAVYYCAKASAIGYLAYWMRNPVEYDTRGQGTLVTVSS
notes: Alpaca-derived sdAb
Take B1: the “Geometric mean MFI” value in test [1] came out at 669. Besides, in test [2], the affinity, expressed as Kd, was 0.0259 nM; the dissociation rate constant (koff) came out at 6.7e-05 s⁻¹; the kon was 2.59e+06 M⁻¹ s⁻¹.

B2: anti-GCC single domain antibody SEQ ID NO. 9 (VHH)
VHH: QKQLVESGGGLVQPGGSLRLSCAASGETLSNYNIGWFRQAPGKEREGVSCISQIGFTNYADSVKGRFTLFRASAENTVYLQMNSLKPEDTAVYYCAVTGGRWASCSFLPLRQDFESWGQGTLVTVSS
notes: Alpaca-derived sdAb
B2: in test [1], the “Geometric mean MFI” value was 447. In test [2], the equilibrium dissociation constant (Kd) was found to be 0.116 nM, the off-rate constant (koff) worked out at 0.00103 s⁻¹ and the kon worked out at 8.84e+06 M⁻¹ s⁻¹.

For orientation: Kd means the constant that tells how readily two partners part at equilibrium. Usually koff stands for the rate constant with which the complex falls apart. Read a low koff as a long-lived complex. What is called kon is the rate constant with which the complex forms. Read a high kon as faster complex formation.
